The values that follow come from US20050069921, “Compositions, kits, and methods for stimulation of homologous recombination” (published 2005).

Where a chain is given by its changes, count along the chain named.

One data set relates to I-SceI. The data set is described as follows: cell_activity. To be noted: homologous recombination; about 2.5-fold fewer broken ends than wild-type core RAG.
The target in data set [1] is T1, RAG-1/RAG-2 core, wild type (Mus musculus, UniProt P15919;P21784 P15919:330-1040,P21784:1-387).
T1 sequence 1: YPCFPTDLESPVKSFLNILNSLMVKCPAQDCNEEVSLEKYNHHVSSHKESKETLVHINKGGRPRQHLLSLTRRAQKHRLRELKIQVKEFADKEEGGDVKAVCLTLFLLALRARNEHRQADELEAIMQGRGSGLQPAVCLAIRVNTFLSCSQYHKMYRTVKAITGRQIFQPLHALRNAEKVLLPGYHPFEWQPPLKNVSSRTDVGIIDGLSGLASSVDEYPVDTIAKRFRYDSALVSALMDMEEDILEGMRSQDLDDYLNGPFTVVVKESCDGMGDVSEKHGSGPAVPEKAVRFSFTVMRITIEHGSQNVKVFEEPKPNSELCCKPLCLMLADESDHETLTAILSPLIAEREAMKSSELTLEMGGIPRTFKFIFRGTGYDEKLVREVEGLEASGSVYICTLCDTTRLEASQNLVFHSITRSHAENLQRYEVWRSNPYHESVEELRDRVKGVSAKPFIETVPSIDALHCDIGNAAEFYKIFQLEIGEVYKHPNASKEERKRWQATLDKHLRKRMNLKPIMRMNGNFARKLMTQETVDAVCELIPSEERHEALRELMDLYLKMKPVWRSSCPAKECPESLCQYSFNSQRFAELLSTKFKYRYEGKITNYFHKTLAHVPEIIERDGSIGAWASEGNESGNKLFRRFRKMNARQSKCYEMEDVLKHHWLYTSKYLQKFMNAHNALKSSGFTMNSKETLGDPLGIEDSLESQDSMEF
T1 sequence 2: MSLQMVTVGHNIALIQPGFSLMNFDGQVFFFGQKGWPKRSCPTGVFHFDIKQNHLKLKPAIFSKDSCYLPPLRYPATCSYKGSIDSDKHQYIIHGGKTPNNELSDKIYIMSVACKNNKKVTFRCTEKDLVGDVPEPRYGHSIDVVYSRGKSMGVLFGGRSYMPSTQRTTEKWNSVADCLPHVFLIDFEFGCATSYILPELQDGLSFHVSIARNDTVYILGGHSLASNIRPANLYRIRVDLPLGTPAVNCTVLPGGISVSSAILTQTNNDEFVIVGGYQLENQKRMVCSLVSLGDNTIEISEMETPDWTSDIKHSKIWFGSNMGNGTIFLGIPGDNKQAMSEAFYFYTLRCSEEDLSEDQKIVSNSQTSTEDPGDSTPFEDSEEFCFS
The data set is described as follows: cell_activity. To be noted: homologous recombination, extrachromosomal; cleavage seen by Southern blot (FIG. 3C).

Data set [2] deals with T2, RAG-1 R838A/K839A/R840A core/RAG-2 core RAG-1 R838A/K839A/R840A (Mus musculus) (UniProt P15919+P21784).
T2 sequence 1: T1 sequence 1 with R509A, K510A, R511A
T2 sequence 2: T1 sequence 2
In words: cell_activity. To be noted: homologous recombination; signal ends 2.5-fold lower than wild type (FIG. 3C).

Another data set concerns the target RAG-1/RAG-2 full-length (UniProt P15919;P21784 P15919:1-1040,P21784:1-527). The data set is described as follows: cell_activity; homologous recombination, integrated single 12-RSS substrate. To be noted: chain copies: 2,2. The procedure:
(§1) Relative stimulation is calculated by dividing the percentage of CFP-positive cells of experimental (nuclease-containing) transfections by the percentage of CFP-positive cells present in the DDE RAG mutant expressing transfection (negative control). It is important to maintain constant (DNA) in each transfection because increases in DNA (including non-substrate molecules) nonspecifically stimulate homologous recombination, as recently reported (Hostager et al., 2003). Experiments have been repeated over a dozen times on three different flow cytometers; FIGS. 3, 4, 6, and 7 show data from five experiments on the Becton Dickinson LSRII.
(§2) The next set of experiments took a complementary approach. Instead of using nick-only RAG proteins, a nick-only substrate was used (i.e., a single 12-RSS, which readily undergoes nicking in vitro (Cuomo et al., 1996; Ramsden et al., 1996) but yields very poor DSB formation in vivo (Steen et al., 1997)). […] Even when the nick-only mutants are assayed on the single RSS substrate, they are able to stimulate homologous recombination as efficiently as the full-length or core wild-type RAG proteins (FIG. 7). […]

Data set [3] concerns the target T1, RAG-1/RAG-2 core, wild type. In words: cell_activity; homologous recombination, integrated single 12-RSS substrate; robust also for full-length RAG. To be noted: tags: GST-RAG-1 core (pEBG-1DN) and RAG-2 core (pMal-1 vector); chain copies: 2,2. On the procedure: as §1, §2

As to I-SceI site substrate, in the data set with I-SceI, the activity (fold over wild-type core RAG) was 9.

“SE substrate (pJH289 recombination zone, 12/23 RSS pair)”: the activity (fold over DDE) in data set [1] came out at 13; in data set [2], 205.

B1: 12-RSS substrate (dsDNA)
DNA 1: CACAGTGCTACAGACTGGAACAAAAACC
DNA 2: GGTTTTTGTTCCAGTCTGTAGCACTGTG
Regarding B1, the activity (with RAG-1/RAG-2 full-length; in data set [3]) was 15 fold over DDE in each case.
